In test [1] the target is GST-TKJMΔ (intracellular domain of the EGFR lacking the first 13 amino acids of the juxtamembrane region, fused to glutathione S-transferase). As to the kind of experiment: cross-linking; total protein extracts of E. coli treated with BS3 or glutaraldehyde, western blot with anti-GST antibody; control without cross-linking agent. Background: Immunoblotting shows a protein as a band on a membrane.

The target of test [2] is glutathione S-transferase (GST). The description is as above.

Sequence of glutathione S-transferase (GST) (P08515 2-218): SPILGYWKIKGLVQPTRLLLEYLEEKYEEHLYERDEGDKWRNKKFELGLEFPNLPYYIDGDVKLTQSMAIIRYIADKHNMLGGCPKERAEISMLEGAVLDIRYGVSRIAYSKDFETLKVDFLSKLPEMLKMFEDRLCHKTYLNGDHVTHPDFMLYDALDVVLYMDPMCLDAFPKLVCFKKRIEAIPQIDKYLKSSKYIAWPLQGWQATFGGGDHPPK

Turning to “GST-TKJMΔ (intracellular domain of the EGFR lacking the first 13 amino acids of the juxtamembrane region, fused to glutathione S-transferase) (domain or fragment)”, in test [1], the stoichiometry N (in general, the number of molecules, sites or subunits per partner or assembly) was determined as 2.
Regarding “glutathione S-transferase (GST) (natural protein)”, in test [2], the stoichiometry N stood at 2.

The values above are taken from article PMC3800664.
